Experimental data published in the supplement of paper PMC9170038.

System: MS2 coat protein
Test: apparent KD of MS2 coat protein; designed switch direction (-1 OFF switch, 1 ON switch): -1; higher = weaker reporter binding
Summary of the method: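 Designed RNA switches with common flanks were made on Illumina chips by stalled E. coli RNA polymerase. Titration with SNAP-549-labelled MS2 coat protein doubled from 0.7 or 1.5 nM up to 3 µM. Apparent KD is each design's median over clusters after curve-fitting normalised fluorescence.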

[1] = Eterna round: R95, input ligand: microRNA oligo, concentration not stated
[2] = Eterna round: R95, input ligand: FMN 200 uM
[3] = Eterna round: R95, input ligand: none

Row | Sequence | apparent KD of MS2 coat protein [1] | apparent KD of MS2 coat protein [2] | apparent KD of MS2 coat protein [3] | apparent KD of MS2 coat protein (input ligand: FMN 200 uM) | apparent KD of MS2 coat protein (input ligand: none)
1 | GUGAAGUAAGGAUAUACAUGAGGAUCACCCAUGUGUGGGAAGGUGAUGGGAGUAGGUAGUAGAAGGUACGAGGA [JR_Exclu3_Sub065] (puzzle: Exclusion 3) | 108 nM |  |  |  | 
2 | UUUUUUGUUGUGAGGAUAUCGUUUUUGUUUUGGAUCGAGAAGGCACAUGAGGAUCACCCAUGUUUGUUGUGGUU [JR_BMOE4_Sub087] (puzzle: Brourd's mod of Exclusion 4) | 78.3 nM |  |  |  | 
3 | GCCAGAGCAGGAUAUUCAAUAUGUCACAUGAGGAUCACCCAUGUCCAGCGAAAGCUGGAGGGAGAAGGGCUCUGGC [Fiskers Ex 5 - 18] (puzzle: Exclusion 5) | 89.3 nM | 23.7 nM | 119 nM |  | 
4 | CGAUUGUGAGGAUAUACUUGUGGUAAUGCACCUGUAUGUAAACAUGAGGAUCACCCAUGUAGAAGGUACGACAG [Eternabot (L2) Solution 11] (Eterna round: R97, puzzle: Exclusion 2) |  |  |  | 27.6 nM | 27.5 nM
5 | AGACAGUGAGGAUAUGCAGUCGGUGUCACCUGAUGAGAAGAACAUGAGGAUCACCCAUGUAGAAGGCACAGGAA [Tearrice] (puzzle: Exclusion 2) | 40.6 nM |  |  |  | 
6 | AUCGUACUAGGAUAUUCGGAAACGGACAUGAGGAUCACCCAUGUGAAUAUCCGCAGUCCAGAAGAAGGAGUGAACG [EX5 C.27] (Eterna round: R97, puzzle: Exclusion 5) |  |  |  | 33.5 nM | 17.9 nM
7 | UCUGUUGAAGGAUAUGCGUAACGAGUUACGGCUCAAGGUCUACAUGAGGAUCACCCAUGUAGAAGGUCAUCAGA [EX2 #71] (Eterna round: R97, puzzle: Exclusion 2) |  |  |  | 19.5 nM | 17.4 nM
8 | AAUAACAAGUAGGAUCCUAACAUGAGGAUCACCCAUGUGCUCGUCUUAUAAAGUACUAUCACGAAAGUGAUAGUACA [Sensor 3, v1 - 53] (puzzle: Sensor v3, turn-off variant 1) | 64.2 nM | 44.4 nM | 83.5 nM |  | 
9 | AUAUUAAUAGUAAGGAUAUGCGUGUAUGUAGUUAUGCAGAAGGUACAUGAGGAUCACCCAUGUAUUAAUGUGUG [LRO-BmodExc4-06-Oppy's Opus] (Eterna round: R97, puzzle: Brourd's mod of Exclusion 4) |  |  |  | 21.6 nM | 17.3 nM
10 | AAAGUAGGAGGAUAUGGAUAUAGUAACAUGAGGAUCACCCAUGUUCUUGGUGUUCGUUACCCAGAAGGCCUGACAC [Eternabot (L1) Solution 64] (Eterna round: R97, puzzle: Exclusion 5) |  |  |  | 184 nM | 91 nM
11 | ACACUGCGAGGAUAUACAUGAGGAUCACCCAUGUUAAGGAAGUCAAGGUUAAUUUAAGGUAGAAGGCGCGUAUU [JR_Ex3_Sub012] (Eterna round: R97, puzzle: Exclusion 3) |  |  |  | 54.6 nM | 38.2 nM
12 | AAUAACAGAGGAUAUACUAUUUUAUGUGUUUAUUGUUUUAAACAUGAGGAUCACCCAUGUAGAAGGCUGAGUAA [JMF 31] (puzzle: Exclusion 2) | 37.4 nM |  |  |  | 
13 | UGUUGUUCAGGAUAUGAUGUAUAAUACAUGAGGAUCACCCAUGUAGAUCCUGAAUUAGCGUCAGAAGGGAAUGUUG [salish99_ex5_r4_104] (Eterna round: R97, puzzle: Exclusion 5) |  |  |  | 18 nM | 21.1 nM
14 | GGCCGUAAUAAGGAUAUCACUAGCUUCGGCUAGUGAGAAGGUAUUACAUGAGGAUCACCCAUGUGAUUAGGCCA [E6/5-B1] (Eterna round: R97, puzzle: Exclusion 6) |  |  |  | 98.1 nM | 25.2 nM
15 | GGUGGGAGGGAUGUGGUGUACAUGAGGAUCACCCAUGUGGUGGACGGGCGCGGGUGCGGGUUUUUUGUUCGUCUUGU [High Nucleotide Full Attached] (Eterna round: R97, puzzle: Sensor, turn-off variant 1) |  |  |  | 131 nM | 159 nM
